Starred links: 1 amine or outer side, 2 acyl side, 3 side chain; linkers in the order of their positions; H or OH if unused. Non-standard residues stand in square brackets, D forms with d. Groups on a side chain read outwards from the residue. *: point of attachment. TTDS = 4-[3-[2-[2-(3-aminopropoxy)ethoxy]ethoxy]propylamino]-4-oxo-butanoyl; γGlu = O=C(O)[C@H](CCC(=O)[*:2])N[*:1]; Stearoyl = CCCCCCCCCCCCCCCCCC(=O)*; Palmitoyl = CCCCCCCCCCCCCCCC(=O)*; Cit = NC(=O)NCCC[C@H](N)C(=O)O; αMeK = C[C@](N)(CCCCN)C(=O)O; hLys = NCCCCC[C@H](N)C(=O)O; AEEA = NCCOCCOCC(=O)O; Aib = CC(C)(N)C(=O)O
T1: RXFP1 receptor (endogenous, on OVCAR5 cells) (UniProt Q9HBX9 1-757, limits assumed)
T1 sequence (looked up): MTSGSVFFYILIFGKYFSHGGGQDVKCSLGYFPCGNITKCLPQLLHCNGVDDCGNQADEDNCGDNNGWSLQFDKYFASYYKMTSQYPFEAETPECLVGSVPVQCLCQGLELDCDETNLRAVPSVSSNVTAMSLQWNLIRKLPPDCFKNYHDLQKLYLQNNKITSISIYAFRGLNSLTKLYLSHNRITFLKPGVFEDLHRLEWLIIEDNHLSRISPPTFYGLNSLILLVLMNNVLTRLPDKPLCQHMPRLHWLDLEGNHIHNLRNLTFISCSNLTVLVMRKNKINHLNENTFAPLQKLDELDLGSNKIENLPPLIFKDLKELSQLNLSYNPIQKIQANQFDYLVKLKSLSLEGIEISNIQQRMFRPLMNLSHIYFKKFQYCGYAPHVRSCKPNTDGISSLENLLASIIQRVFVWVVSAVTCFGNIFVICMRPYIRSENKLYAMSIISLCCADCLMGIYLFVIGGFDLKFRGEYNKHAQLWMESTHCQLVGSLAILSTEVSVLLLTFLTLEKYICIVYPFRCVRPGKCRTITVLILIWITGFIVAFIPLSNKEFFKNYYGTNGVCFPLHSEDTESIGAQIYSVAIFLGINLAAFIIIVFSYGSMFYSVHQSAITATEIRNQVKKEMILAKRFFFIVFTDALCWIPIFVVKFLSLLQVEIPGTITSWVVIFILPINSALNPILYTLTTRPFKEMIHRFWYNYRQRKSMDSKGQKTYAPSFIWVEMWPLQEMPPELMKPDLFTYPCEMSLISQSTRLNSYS

B1: peptide of SEQ ID NO: 42 (peptide)
peptide: Ac-LEGREKVRAK(Ac)I[Aib][Aib]EGK([AEEA-AEEA-AEEA-AEEA-γGlu-γGlu-γGlu-Palmitoyl])STWS[αMeK]RAK(Ac)-NH2
SMILES: CCCCCCCCCCCCCCCC(=O)N[C@@H](CCC(=O)N[C@@H](CCC(=O)N[C@@H](CCC(=O)NCCOCCOCC(=O)NCCOCCOCC(=O)NCCOCCOCC(=O)NCCOCCOCC(=O)NCCCC[C@H](NC(=O)CNC(=O)[C@H](CCC(=O)O)NC(=O)C(C)(C)NC(=O)C(C)(C)NC(=O)[C@@H](NC(=O)[C@H](CCCCNC(C)=O)NC(=O)[C@H](C)NC(=O)[C@H](CCCNC(=N)N)NC(=O)[C@@H](NC(=O)[C@H](CCCCN)NC(=O)[C@H](CCC(=O)O)NC(=O)[C@H](CCCNC(=N)N)NC(=O)CNC(=O)[C@H](CCC(=O)O)NC(=O)[C@H](CC(C)C)NC(C)=O)C(C)C)[C@@H](C)CC)C(=O)N[C@@H](CO)C(=O)N[C@H](C(=O)N[C@@H](Cc1c[nH]c2ccccc12)C(=O)N[C@@H](CO)C(=O)N[C@@](C)(CCCCN)C(=O)N[C@@H](CCCNC(=N)N)C(=O)N[C@@H](C)C(=O)N[C@@H](CCCCNC(C)=O)C(N)=O)[C@@H](C)O)C(=O)O)C(=O)O)C(=O)O
B2: peptide of SEQ ID NO: 47 (peptide)
peptide: Ac-LEGREKVRAKI[Aib][Aib]EGK([TTDS-TTDS-TTDS-γGlu-γGlu-γGlu-Palmitoyl])STFS[αMeK]RAK(Ac)-NH2
B3: peptide of SEQ ID NO: 48 (peptide)
peptide: Ac-LEGREKVRAQI[Aib][Aib]EGK([TTDS-TTDS-TTDS-γGlu-γGlu-γGlu-Palmitoyl])STFS[αMeK]RAK(Ac)-NH2
B4: peptide of SEQ ID NO: 51 (peptide)
peptide: Ac-LEGREKVRAK(Ac)I[Aib][Aib]EGK([TTDS-TTDS-TTDS-γGlu-γGlu-γGlu-γGlu-Stearoyl])STWS[Aib]RKK(Ac)-NH2
B5: peptide of SEQ ID NO: 45 (peptide)
peptide: Ac-LEGREKVRAK(Ac)I[Aib][Aib]EGK([AEEA-AEEA-AEEA-AEEA-AEEA-γGlu-γGlu-γGlu-Palmitoyl])STFS[αMeK]RAK(Ac)-NH2
SMILES: CCCCCCCCCCCCCCCC(=O)N[C@@H](CCC(=O)N[C@@H](CCC(=O)N[C@@H](CCC(=O)NCCOCCOCC(=O)NCCOCCOCC(=O)NCCOCCOCC(=O)NCCOCCOCC(=O)NCCOCCOCC(=O)NCCCC[C@H](NC(=O)CNC(=O)[C@H](CCC(=O)O)NC(=O)C(C)(C)NC(=O)C(C)(C)NC(=O)[C@@H](NC(=O)[C@H](CCCCNC(C)=O)NC(=O)[C@H](C)NC(=O)[C@H](CCCNC(=N)N)NC(=O)[C@@H](NC(=O)[C@H](CCCCN)NC(=O)[C@H](CCC(=O)O)NC(=O)[C@H](CCCNC(=N)N)NC(=O)CNC(=O)[C@H](CCC(=O)O)NC(=O)[C@H](CC(C)C)NC(C)=O)C(C)C)[C@@H](C)CC)C(=O)N[C@@H](CO)C(=O)N[C@H](C(=O)N[C@@H](Cc1ccccc1)C(=O)N[C@@H](CO)C(=O)N[C@@](C)(CCCCN)C(=O)N[C@@H](CCCNC(=N)N)C(=O)N[C@@H](C)C(=O)N[C@@H](CCCCNC(C)=O)C(N)=O)[C@@H](C)O)C(=O)O)C(=O)O)C(=O)O
B6: peptide of SEQ ID NO: 35 (peptide)
peptide: Ac-LEGREKVRAK(Ac)I[Aib][Aib]EGK([TTDS-TTDS-TTDS-γGlu-γGlu-γGlu-Palmitoyl])STW[Aib]KRAK(Ac)-NH2
B7: peptide of SEQ ID NO: 36 (peptide)
peptide: Ac-LEGREKVRAK(Ac)I[Aib][Aib]EGK([TTDS-TTDS-TTDS-γGlu-γGlu-γGlu-Palmitoyl])STFS[Dlys]RAK(Ac)-NH2
B8: peptide of SEQ ID NO: 34 (peptide)
peptide: Ac-LEGREKVRAK(Ac)I[Aib][Aib]EGK([TTDS-TTDS-γGlu-γGlu-γGlu-Stearoyl])STFS[αMeK]RAK(Ac)-NH2
B9: peptide of SEQ ID NO: 4 (peptide)
peptide: Ac-LEGREKVRAK(Ac)I[Aib][Aib]EGK([TTDS-TTDS-γGlu-γGlu-γGlu-Palmitoyl])STWS[Aib]RKK(Ac)-NH2
B10: peptide of SEQ ID NO: 57 (peptide)
peptide: Ac-LEGREKVRAK(Ac)I[Aib][Aib]EGK([TTDS-TTDS-TTDS-γGlu-γGlu-γGlu-Palmitoyl])STWS[hLys]RAK(Ac)-NH2
B11: peptide of SEQ ID NO: 54 (peptide)
peptide: Ac-LEGREKVRAK(Ac)I[Aib][Aib]EGK([TTDS-TTDS-γGlu-γGlu-γGlu-γGlu-Stearoyl])STWS[Aib]RKK(Ac)-NH2
B12: peptide of SEQ ID NO: 37 (peptide)
peptide: Ac-LEGRELVRAK(Ac)I[Aib][Aib]EGK([TTDS-TTDS-TTDS-γGlu-γGlu-γGlu-Palmitoyl])STWS[Aib]RRK(Ac)-NH2
B13: peptide of SEQ ID NO: 56 (peptide)
peptide: Ac-LEGREKVRA[Cit]I[Aib][Aib]EGK([TTDS-TTDS-TTDS-γGlu-γGlu-γGlu-Stearoyl])STFS[αMeK]RAK(Ac)-NH2
B14: peptide of SEQ ID NO: 49 (peptide)
peptide: Ac-LEGREKVRAK(Ac)I[Aib][Aib]EGK([TTDS-TTDS-TTDS-γGlu-γGlu-γGlu-Palmitoyl])STFS[αMeK]RAK-NH2
B15: peptide of SEQ ID NO: 39 (peptide)
peptide: Ac-LEGREFVRAK(Ac)I[Aib][Aib]EGK([TTDS-TTDS-TTDS-γGlu-γGlu-γGlu-Palmitoyl])STWS[Aib]RRK(Ac)-NH2
B16: peptide of SEQ ID NO: 44 (peptide)
peptide: Ac-LEGREKVRAK(Ac)I[Aib][Aib]EGK([TTDS-TTDS-TTDS-γGlu-γGlu-γGlu-Palmitoyl])STW[Dser]KRAK(Ac)-NH2
B17: peptide of SEQ ID NO: 55 (peptide)
peptide: Ac-LEGRERVRAK(Ac)I[Aib][Aib]EGK([TTDS-TTDS-TTDS-γGlu-γGlu-γGlu-Palmitoyl])STWS[Aib]RRK(Ac)-NH2
B18: KKKK(AcB7-29 C11.23S) (peptide)
peptide: Ac-VIKLSGRELVRAQIAISGMSTWSKKKK-NH2
B19: B7-33 C11.23S (peptide)
peptide: H-VIKLSGRELVRAQIAISGMSTWSKRSL-NH2
B20: AcB7-33 C11.23S (peptide)
peptide: Ac-VIKLSGRELVRAQIAISGMSTWSKRSL-NH2

Each binder was assayed against T1, RXFP1 receptor (endogenous, on OVCAR5 …) (assay: cell-based or functional assay).

EC50 (nM), OVCAR 5 cells (cAMP) | EMax, OVCAR 5 cells (cAMP) | Binder
1.5 nM | 84% | B1
0.64 nM | 95% | B2
0.45 nM | 96% | B3
0.1 nM | 98% | B4
0.45 nM | 96% | B5
2.33 nM | 91% | B6
3.6 nM | 93% | B7
0.14 nM | 90% | B8
1.5 nM | 89% | B9
0.44 nM | 98% | B10
0.16 nM | 96% | B11
5.6 nM | 98% | B12
0.15 nM | 91% | B13
0.19 nM | 97% | B14
8.7 nM | 93% | B15
2.2 nM | 97% | B16
0.18 nM |  | B17

Target: T1, RXFP1 receptor (endogenous, on OVCAR5 …)
Assay: cell-based or functional assay
Remark: another data set of the same source

EC50 (nM), cAMP assay in OVCAR 5 cells | Emax, cAMP assay in OVCAR 5 cells | Binder
206 nM | 84% | B18
1640 nM | 90% | B19
929 nM | 70% | B20

Reference: patent US20190233494A1 (Sanofi, published 2019)
